Data published in patent US20230416396A1 (Regeneron, published 2023).

How the values were obtained:
[1] = biological target: T1, human 4-1BB on cells (human, UniProt Q07011 24-255); test: cell-based or functional assay
[2] = biological target: T1, human 4-1BB on cells; test: cell-based or functional assay; remark: listed apart in the source
[3] = biological target: T1, human 4-1BB on cells; test: cell-based or functional assay; remark: listed apart in the source
[4] = biological target: T2, human 4-1BB expressed with a C-terminal myc-myc-hexahistidine tag (human, UniProt Q07011 24-186); test: SPR Biacore 8k, antibody captured by anti-human Fc, h4-1BB.mmH as analyte, 25 C
T2 construct: also called h4-1BB.mmH; REGN3584; not shown: C-terminal myc-myc-hexahistidine tag
T2 sequence (Q07011 24-186 limits assumed): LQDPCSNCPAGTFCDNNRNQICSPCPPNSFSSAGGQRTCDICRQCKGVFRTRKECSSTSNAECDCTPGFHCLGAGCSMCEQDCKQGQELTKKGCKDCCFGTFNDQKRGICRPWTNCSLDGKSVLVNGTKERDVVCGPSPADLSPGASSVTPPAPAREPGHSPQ
Description: (§1) Equilibrium dissociation constants (KD values) for human 4-1BB expressed with a C-terminal myc-myc-hexahistidine tag (h4-1BB.mmH, REGN3584) or human 4-1BB expressed with a C-terminal murine Fc tag (h4-1BB.mFc, REGN3585) binding to purified anti-CD38×4-1BB 1+2 antibodies were determined using a real-time surface plasmon resonance biosensor using a Biacore 8k instrument. The CM5 Biacore sensor surface was derivatized by amine coupling with a monoclonal mouse anti-human Fc antibody (REGN2567). All Biacore binding studies were performed in a buffer composed of 0.01M HEPES pH 7.4, 0.15M NaCl, 3 mM EDTA, 0.05% v/v Surfactant P20 (HBS-EP running buffer). […] Antibody-reagent association was monitored for 5 minutes while dissociation in HBS-EP running buffer was monitored for 10 minutes. At the end of each cycle, the anti-CD38×4-1BB 1+2 antibody capture surface was regenerated using a 10 second injection of 20 mM phosphoric acid. All binding kinetics experiments were performed at 25° C.
(§2) Kinetic association (kₐ) and dissociation (kd) rate constants were determined by fitting the real-time sensorgrams to a 1:1 binding model using Cytiva Insight curve fitting software. Binding dissociation equilibrium constants (KD) and dissociative half-lives (t/2) were calculated from the kinetic rate constants as: […]

[5] = biological target: T3, human 4-1BB expressed with a C-terminal murine Fc tag (human, UniProt Q07011 24-186); test: SPR Biacore 4000, h4-1BB.mFc captured by anti-mouse Fc, antibody as analyte, 25 C
T3 construct: also called h4-1BB.mFc; REGN3585; not shown: C-terminal murine Fc tag
T3 sequence (Q07011 24-186 limits assumed): as above
Description: Equilibrium dissociation constants (KD values) for human 4-1BB expressed with a C-terminal murine Fc tag (h4-1BB.mFc, REGN3585) binding to purified anti-CD38×4-1BB 1+2 antibodies were determined using a real-time surface plasmon resonance biosensor using a Biacore 4000 instrument. […] All Biacore binding studies were performed in a buffer composed of 0.01M HEPES pH 7.4, 0.15M NaCl, 3 mM EDTA, 0.05% v/v Surfactant P20 (HBS-EP running buffer). Different concentrations of CD38×4-1BB 1+2 constructs prepared in HBS-EP running buffer (ranging from 100 to 6.25 nM in 4-fold serial dilutions) were injected over the h4-1BB.mFc (REGN3585) captured surface at a flow rate of 30 μL/minute. Antibody-reagent association was monitored for 5 minutes while dissociation in HBS-EP running buffer was monitored for 10 minutes. At the end of each cycle, the h4-1BB.mFc capture surface was regenerated using a 40 sec injection of 10 mM glycine, pH 1.5. All binding kinetics experiments were performed at 25° C.
as §2

[6] = biological target: T4, human CD38 endogenously expressed on MOLP8 cells (human, UniProt P28907 1-300); test: flow cytometry on MOLP8 cells (endogenous hCD38), APC anti-human secondary
T4 construct: whole, on cells; also called hCD38
Description: (§3) The ability of the multispecific antigen binding molecules to bind cells was assessed using flow cytometry. Cell lines were chosen to determine the ability of both the anti-CD38 and anti-4-1BB arms to bind their targets. […] Binding was detected by using a labeled secondary antibody and measuring fluorescence on a flow cytometer.
HEK293 cells were lifted with trypsin, washed and resuspend in stain buffer (2% FBS in PBS). MOLP8 cells were washed and resuspended in stain buffer. Cells were added to wells of a 96 well V-bottom plate (3×10⁵ cells/well). A 1:4, 9-point, dose titration of test antibodies was diluted in stain buffer and added to cells to a final concentration ranging from 610 fM to 10 nM (a “no antibody” control was included as the ninth point (153fM), labeled as “secondary only”). Cells and antibodies were incubated for 30 min on ice and then washed in stain buffer. Cells were resuspended in 2 ug/ml allophycocyanin (APC) conjugated goat-anti human secondary antibody and incubated for 30 min on ice. Cells were then washed and resuspended in viability dye (according to the manufacturer's protocol) and incubated for 30 min on ice. Cells were then washed with stain buffer and resuspended in 2% PFA for 30 min on ice. After washing, cells were filtered and analyzed by flow cytometry to determine the geometric mean fluorescence intensity (gMFI), which was subsequently plotted using GraphPad Prism software. EC₅₀ values of the antibodies were determined from a 4-parameter logistic equation over a 9-point dose response curve (including secondary only control, representing the ninth point).

[7] = biological target: T1, human 4-1BB on cells; test: flow cytometry on HEK293/h4-1BB cells, APC anti-human secondary
Description: as §3
HEK293 and HEK293/4-1BB cells were lifted with trypsin, washed and resuspended in stain buffer (2% FBS in PBS) and added to wells of a 96 well V-bottom plate (3×10⁵ cells/well). A 1:5, 9-point, dose titration of test antibodies was diluted in stain buffer and added to cells to a final concentration ranging from 1.3 pM to 100 nM (a “no antibody” control was included as the ninth point ([…]) labeled as “secondary only”). Cells and antibodies were incubated for 30 min on ice and then washed in stain buffer. Cells were resuspended in 2 ug/ml allophycocyanin (APC) conjugated goat-anti human secondary antibody and incubated for 30 min on ice. Cells were then washed and resuspended in viability dye (according to the manufacturer's protocol) and incubated for 30 min on ice. Cells were then washed with stain buffer and resuspended in 2% PFA for 30 min on ice. After washing, cells were filtered and analyzed by flow cytometry to determine the geometric mean fluorescence intensity (gMFI), which was subsequently plotted using GraphPad Prism software. EC₅₀ values of the antibodies were determined from a 4-parameter logistic equation over a 9-point dose response curve (including secondary only control).

[8] = biological target: T3, human 4-1BB expressed with a C-terminal …; test: SPR Biacore 8k, antibody captured by anti-human Fc, h4-1BB.mFc as analyte, 25 C
Description: as §1, §2

[9] = biological target: T1, human 4-1BB on cells; test: cell-based or functional assay; remark: listed apart in the source

T1 sequence (Q07011 24-255): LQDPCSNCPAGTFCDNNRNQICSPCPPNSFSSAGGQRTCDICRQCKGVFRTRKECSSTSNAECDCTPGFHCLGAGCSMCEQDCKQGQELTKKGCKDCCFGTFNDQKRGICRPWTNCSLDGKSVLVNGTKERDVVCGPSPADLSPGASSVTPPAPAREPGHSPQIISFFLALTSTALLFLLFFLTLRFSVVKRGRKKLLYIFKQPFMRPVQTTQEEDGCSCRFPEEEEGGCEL

B1: REGN7650 (bispecific antibody, human IgG4 S228P, kappa)
heavy 1: EVQLVESGGGLVQPGGSLRLPCAASGFTFSSYAMSWVRQAPGKGLEWVADISGSGGDTYYVDSVKGRFTISRDNSKNTLYLQMNSLRIEDTAVYYCAKGRWHWNYEGFDIWGQGTMVTVSSASTKGPSVFPLAPCSRSTSESTAALGCLVKDYFPEPVTVSWNSGALTSGVHTFPAVLQSSGLYSLSSVVTVPSSSLGTKTYTCNVDHKPSNTKVDKRVESKYGPPGGGGSGGGGSGGGGSQVQLVESGGDVVQPGRSLRLSCTASGFTFSSFGMHWVRQAPGKGLEWVTFLSYDGSYKYYADSVKGRFTISRDNSKNTLYLQMNSLRAEDTAIFYCARDWLDYWGQGTLVTVSSASTKGPSVFPLAPCSRSTSESTAALGCLVKDYFPEPVTVSWNSGALTSGVHTFPAVLQSSGLYSLSSVVTVPSSSLGTKTYTCNVDHKPSNTKVDKRVESKYGPPCPPCPAPPVAGPSVFLFPPKPKDTLMISRTPEVTCVVVDVSQEDPEVQFNWYVDGVEVHNAKTKPREEQFNSTYRVVSVLTVLHQDWLNGKEYKCKVSNKGLPSSIEKTISKAKGQPREPQVYTLPPSQEEMTKNQVSLTCLVKGFYPSDIAVEWESNGQPENNYKTTPPVLDSDGSFFLYSRLTVDKSRWQEGNVFSCSVMHEALHNRFTQKSLSLSPGK
heavy 2: EVQLVESGGGLVQPGRSLRLSCAASGFTFDDYAMHWVRQAPGKGLEWVSGISWKSDNIGYADSVKGRFTISRDNAKNSLYLQMNSLRAEDTALYYCAKALGGWKFDYYYGMDVWGQGTTVTVSSASTKGPSVFPLAPCSRSTSESTAALGCLVKDYFPEPVTVSWNSGALTSGVHTFPAVLQSSGLYSLSSVVTVPSSSLGTKTYTCNVDHKPSNTKVDKRVESKYGPPCPPCPAPPVAGPSVFLFPPKPKDTLMISRTPEVTCVVVDVSQEDPEVQFNWYVDGVEVHNAKTKPREEQFNSTYRVVSVLTVLHQDWLNGKEYKCKVSNKGLPSSIEKTISKAKGQPREPQVYTLPPSQEEMTKNQVSLTCLVKGFYPSDIAVEWESNGQPENNYKTTPPVLDSDGSFFLYSRLTVDKSRWQEGNVFSCSVMHEALHNHYTQKSLSLSLGK
light: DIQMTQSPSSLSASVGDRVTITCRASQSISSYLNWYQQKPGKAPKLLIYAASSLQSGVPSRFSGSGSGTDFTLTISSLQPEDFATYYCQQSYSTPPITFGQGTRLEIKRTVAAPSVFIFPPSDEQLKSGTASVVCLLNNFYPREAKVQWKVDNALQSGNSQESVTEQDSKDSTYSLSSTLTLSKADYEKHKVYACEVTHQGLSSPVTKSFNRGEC
notes: 1+2 format, hIgG4P-PVA; also called CD38x4-1BB (1 + 2); 26812P2 x 25898P2 (IN) + 35321P2 (OUT)
B1 was tested, and the “EC50 of luciferase activity, HEK293/NFkB-Luc/h4-1BB reporter + OPM2” value [1] was 0.0989 nM, the “MAX luciferase activity, HEK293/NFkB-Luc/h4-1BB reporter + HEK293/CD20” value [1] was 1.5e+06 RLU and the “MAX luciferase activity, HEK293/NFkB-Luc/h4-1BB reporter + HEK293/CD20/CD38” value [1] was 2.3e+06 RLU. For the same binder, the “MAX luciferase activity, HEK293/NFkB-Luc/h4-1BB reporter + MOLP-8” value [1] was 2.4e+06 RLU, the “MAX luciferase activity, HEK293/NFkB-Luc/h4-1BB reporter + OPM2” value [1] was 2e+06 RLU and the “EC50 of IFNγ release, T cells + NALM-6 + Cemiplimab” value [2] was 0.156 nM. The “EC50 of IL-2 release, T cells + NALM6 + Cemiplimab” value [3] was 0.155 nM, the “EC50 of IL-2 release, T cells + NALM6 + IgG4P” value [3] was 0.179 nM and the “EC50 of IL-2 release, T cells + NALM6/PD-L1 + Cemiplimab” value [3] was 0.283 nM. For the same binder, the “EC50 of IL-2 release, T cells + NALM6/PD-L1 + IgG4P” value [3] was 0.228 nM, the “100 nM h4-1BB.mmH Bind (RU)” value [4] was 41.9 RU and the Kd [4] was 20.4 nM. The koff [4] was 0.00535 s⁻¹, the kon [4] was 262000 M⁻¹ s⁻¹ and the t½ [4] was 2.2 min. The “100 nM Ab Bind (RU)” value [5] was 266 RU, the Kd [5] was 0.797 nM and the koff [5] was 0.000169 s⁻¹. For the same binder, the kon [5] was 212000 M⁻¹ s⁻¹, the t½ [5] was 1.14 h and the “MAX gMFI” value [6] was 140000 gMFI. For the same binder, the EC50 [7] was 0.997 nM, the “MAX gMFI” value [7] was 1e+06 gMFI and the “100 nM h4-1BB.mFc Bind (RU)” value [8] was 152 RU. For the same binder, the Kd [8] was 1.2 nM, the koff [8] was 0.000122 s⁻¹ and the kon [8] was 102000 M⁻¹ s⁻¹. For the same binder, the t½ [8] was 1.58 h, the “EC50 of IL-2 release, T cells + HEK293/CD20/CD38 + REGN1979” value [9] was 0.014 nM and the “EC50 of IL-2 release, T cells + MOLP-8 + REGN5458” value [9] was 0.0317 nM. For the same binder, the “MAX IL-2 release, T cells + HEK293/CD20 + REGN1979” value [9] was 184 pg/mL, the “MAX IL-2 release, T cells + HEK293/CD20/CD38 + IsoC” value [9] was 10 pg/mL and the “MAX IL-2 release, T cells + HEK293/CD20/CD38 + REGN1979” value [9] was 2720 pg/mL. For the same binder, the “MAX IL-2 release, T cells + MOLP-8 + IsoC” value [9] was 288 pg/mL and the “MAX IL-2 release, T cells + MOLP-8 + REGN5458” value [9] was 553 pg/mL.
